The test concerns the target calmodulin (in the CaMKI and calcineurin activity assays). Briefly: cell-based or functional assay.

Take phosphorylated DARPP-21: the inhibition of CaMKI kinase activity in vitro, IC50 is 1.2 µM and the inhibition of calcineurin phosphatase activity in vitro, IC50 is 1 µM.

Source of the values: US20050153372A1.
